For four compounds, stoichiometry N, Kd and IC50 results are on record in PMC8066426 (iScience, 2021).

The target in assay [1] is ATP-binding site mutant of the TpCorC cross-linking construct (T106C/C282A/Y255A/T336I) (Thermus parvatiensis). Description: cross-linking.
Assay [2] concerns the target T1, CorC (TpCorC) (Thermus parvatiensis, UniProt A0A109QFA5).
T1 sequence (A0A109QFA5 207-348): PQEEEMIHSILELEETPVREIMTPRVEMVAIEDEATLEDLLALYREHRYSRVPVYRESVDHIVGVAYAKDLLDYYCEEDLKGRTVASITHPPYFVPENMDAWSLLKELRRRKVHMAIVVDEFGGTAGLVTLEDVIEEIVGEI
Description: FRET from endogenous Trp to bound mant fluorophore, saturation binding.

In assay [3] the target is T1, CorC (TpCorC). Description: competitive displacement of mant-ATP. Type of assay: binding.
Assay [4] concerns the target TpCorC inter-subunit cross-linking mutant (T106C/C282A) (Thermus parvatiensis). Description: cross-linking.

Consider “ATP-binding site mutant of the TpCorC cross-linking construct (T106C/C282A/Y255A/T336I) (natural protein)”, for which, in assay [1], the stoichiometry N (as a rule, the number of molecules, sites or subunits per partner or assembly) worked out at 2.
Regarding `CNc1ccccc1C(=O)O[C@H]1[C@@H](O)[C@H](n2cnc3c(N)ncnc32)O[C@@H]1CO[P@@](=O)(O)O[P@](=O)(O)OP(=O)(O)O` [mant-ATP, 2′(3′)-O-(N-methylanthraniloyl)adenosine 5′-triphosphate], in assay [2], the Kd (commonly the constant that tells how readily two partners part at equilibrium) was 1360 ± 100 nM.
Consider `Nc1ncnc2c1ncn2[C@@H]1O[C@H](COP(=O)(O)OP(=O)(O)OP(=O)(O)O)[C@@H](O)[C@H]1O` [ATP], for which the IC50 (in general, the point on the concentration scale where inhibition reaches its midpoint) in assay [3] was found to be 570 ± 80 nM.
In turn, “TpCorC inter-subunit cross-linking mutant (T106C/C282A) (natural protein)” returned a stoichiometry N in assay [4] of 2.
